Reference: PMC9482650, “Quantitative fragmentomics allow affinity mapping of interactomes” (Nature Communications, 2022)

Assays:
Assay in all cases: holdup assay
Design in all cases: key: below the threshold = too weak to quantify, mostly under pKd 3.1 to 4
Details in all cases: plain residues with an end cap or a label only (N-terminal biotin on a linker: ado-ado)
PDZRN3_1, Q9UPQ7 = target: T1, PDZRN3_1, Q9UPQ7
T1 sequence (Q9UPQ7 244-349, limits assumed, looked up): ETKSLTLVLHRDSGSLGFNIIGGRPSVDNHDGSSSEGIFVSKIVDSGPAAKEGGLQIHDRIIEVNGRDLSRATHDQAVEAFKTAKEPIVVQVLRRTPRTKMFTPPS

HTRA2, O43464 = target: HTRA2, O43464
HTRA2, O43464, sequence (O43464 355-458): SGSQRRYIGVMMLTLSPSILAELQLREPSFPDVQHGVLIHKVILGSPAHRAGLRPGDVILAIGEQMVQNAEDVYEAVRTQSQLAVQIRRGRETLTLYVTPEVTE

PDLIM1, O00151 = target: PDLIM1, O00151
PDLIM1, O00151, sequence (O00151 1-87): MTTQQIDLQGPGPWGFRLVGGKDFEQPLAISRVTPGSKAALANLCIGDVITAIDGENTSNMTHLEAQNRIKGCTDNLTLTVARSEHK

DLG3_1, Q92796 = target: T2, DLG3_1, Q92796
T2 sequence (Q92796 125-227, limits assumed, looked up): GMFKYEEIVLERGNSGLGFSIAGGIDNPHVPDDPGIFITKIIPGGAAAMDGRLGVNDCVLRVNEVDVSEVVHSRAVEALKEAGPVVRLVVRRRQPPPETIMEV

HTRA1, Q92743 = target: HTRA1, Q92743
HTRA1, Q92743, sequence (Q92743 360-477): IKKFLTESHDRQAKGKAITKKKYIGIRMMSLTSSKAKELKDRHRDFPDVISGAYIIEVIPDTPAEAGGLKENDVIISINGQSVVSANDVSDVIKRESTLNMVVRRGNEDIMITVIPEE

GORASP2, Q9H8Y8 = target: GORASP2, Q9H8Y8
MPP6, Q9NZW5 = target: T3, MPP6, Q9NZW5
T3 sequence (Q9NZW5 125-219, limits assumed, looked up): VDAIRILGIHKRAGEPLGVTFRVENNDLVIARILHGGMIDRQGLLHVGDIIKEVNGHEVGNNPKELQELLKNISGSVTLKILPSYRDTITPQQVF

LNX1_3, Q8TBB1 = target: LNX1_3, Q8TBB1
LNX1_3, Q8TBB1, sequence (Q8TBB1 500-596): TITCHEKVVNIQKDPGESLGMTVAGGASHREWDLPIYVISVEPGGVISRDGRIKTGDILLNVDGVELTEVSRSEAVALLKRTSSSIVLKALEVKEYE

GRIP1_2, Q9Y3R0 = target: T4, GRIP1_2, Q9Y3R0
T4 sequence (Q9Y3R0 145-248, limits assumed, looked up): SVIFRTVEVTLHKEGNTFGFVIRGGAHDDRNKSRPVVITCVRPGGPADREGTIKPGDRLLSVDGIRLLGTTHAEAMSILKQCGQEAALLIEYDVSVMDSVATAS

ARHGEF12, Q9NZN5-2 = target: ARHGEF12, Q9NZN5-2
ARHGEF12, Q9NZN5-2, sequence (Q9NZN5 other isoform, or with tags, fused parts or gaps): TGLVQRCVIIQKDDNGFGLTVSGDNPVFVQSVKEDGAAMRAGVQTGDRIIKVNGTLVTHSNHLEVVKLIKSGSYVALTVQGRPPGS

PCLO, Q9Y6V0 = target: T5, PCLO, Q9Y6V0
T5 sequence (Q9Y6V0 4491-4600, limits assumed, looked up): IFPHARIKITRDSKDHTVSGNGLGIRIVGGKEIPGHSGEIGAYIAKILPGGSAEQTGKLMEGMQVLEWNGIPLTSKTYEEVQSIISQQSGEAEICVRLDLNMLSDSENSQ

LIN7B, Q9HAP6 = target: T6, LIN7B, Q9HAP6
T6 sequence (Q9HAP6 88-185, limits assumed, looked up): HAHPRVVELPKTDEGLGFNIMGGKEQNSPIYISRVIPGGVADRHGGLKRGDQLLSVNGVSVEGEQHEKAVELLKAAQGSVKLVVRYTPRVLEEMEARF

DVL3, Q92997 = target: T7, DVL3, Q92997
T7 sequence (Q92997 244-331, limits assumed, looked up): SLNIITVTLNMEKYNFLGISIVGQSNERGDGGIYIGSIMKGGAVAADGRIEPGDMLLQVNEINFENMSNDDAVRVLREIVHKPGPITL

NHERF4_1, Q86UT5-2 = target: NHERF4_1, Q86UT5-2
NHERF4_1, Q86UT5-2, sequence (Q86UT5 other isoform, or with tags, fused parts or gaps): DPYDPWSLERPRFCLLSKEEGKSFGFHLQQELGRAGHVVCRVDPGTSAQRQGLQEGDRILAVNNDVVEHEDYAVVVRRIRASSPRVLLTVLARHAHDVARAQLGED

LIN7A, O14910 = target: T8, LIN7A, O14910
T8 sequence (O14910 103-200, limits assumed, looked up): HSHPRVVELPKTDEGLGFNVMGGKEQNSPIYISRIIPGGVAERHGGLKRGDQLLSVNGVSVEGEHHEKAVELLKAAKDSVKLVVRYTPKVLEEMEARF

APBA2_1, Q99767 = target: T9, APBA2_1, Q99767
T9 sequence (Q99767 563-664, limits assumed, looked up): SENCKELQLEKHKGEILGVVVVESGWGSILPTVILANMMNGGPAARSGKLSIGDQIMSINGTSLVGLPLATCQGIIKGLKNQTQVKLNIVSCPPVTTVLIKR

GRID2IP_1, A4D2P6 = target: GRID2IP_1, A4D2P6
GRID2IP_1, A4D2P6, sequence (A4D2P6 1-87): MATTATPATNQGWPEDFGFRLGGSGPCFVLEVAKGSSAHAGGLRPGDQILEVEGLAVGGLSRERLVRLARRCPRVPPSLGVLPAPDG

FRMPD2_2, Q68DX3 = target: FRMPD2_2, Q68DX3
FRMPD2_2, Q68DX3, sequence (Q68DX3 944-1038): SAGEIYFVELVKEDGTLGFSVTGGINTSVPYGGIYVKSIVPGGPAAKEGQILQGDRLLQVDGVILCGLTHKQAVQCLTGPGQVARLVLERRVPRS

TJP1_3, Q07157 = target: TJP1_3, Q07157
TJP1_3, Q07157, sequence (Q07157 416-512): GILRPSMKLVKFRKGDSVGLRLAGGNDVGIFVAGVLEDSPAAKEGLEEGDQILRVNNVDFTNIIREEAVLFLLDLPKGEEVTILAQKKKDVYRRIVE

IL16_4, Q14005 = target: IL16_4, Q14005
IL16_4, Q14005, sequence (Q14005 1229-1329): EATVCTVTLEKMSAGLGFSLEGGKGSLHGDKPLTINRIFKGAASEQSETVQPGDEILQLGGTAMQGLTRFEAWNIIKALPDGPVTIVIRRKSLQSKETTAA

FRMPD1, Q5SYB0 = target: T10, FRMPD1, Q5SYB0
T10 sequence (Q5SYB0 52-145, limits assumed, looked up): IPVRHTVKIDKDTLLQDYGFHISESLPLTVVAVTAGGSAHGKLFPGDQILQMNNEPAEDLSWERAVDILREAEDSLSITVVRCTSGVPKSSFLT

SCRIB_3, Q14160 = target: SCRIB_3, Q14160
SCRIB_3, Q14160, sequence (Q14160 999-1103): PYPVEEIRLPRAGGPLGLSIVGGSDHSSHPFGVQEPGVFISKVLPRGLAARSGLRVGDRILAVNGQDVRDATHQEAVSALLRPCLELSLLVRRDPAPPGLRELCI

Inadl_8, Q8NI35 = target: Inadl_8, Q8NI35
Inadl_8, Q8NI35, sequence (Q8NI35 1425-1530): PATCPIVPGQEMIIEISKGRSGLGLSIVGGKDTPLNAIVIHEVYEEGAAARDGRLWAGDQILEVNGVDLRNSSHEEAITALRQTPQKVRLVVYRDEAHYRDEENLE

DLG3_2, Q92796 = target: T11, DLG3_2, Q92796
T11 sequence (Q92796 221-321, limits assumed, looked up): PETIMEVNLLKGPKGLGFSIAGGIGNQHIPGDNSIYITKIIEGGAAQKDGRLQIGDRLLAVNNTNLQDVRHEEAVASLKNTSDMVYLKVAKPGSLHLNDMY

SNTG1, Q9NSN8 = target: T12, SNTG1, Q9NSN8
T12 sequence (Q9NSN8 52-150, limits assumed, looked up): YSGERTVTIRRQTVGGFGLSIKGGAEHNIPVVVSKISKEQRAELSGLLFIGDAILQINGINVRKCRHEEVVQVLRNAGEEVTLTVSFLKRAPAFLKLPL

LAP2, Q96RT1 = target: LAP2, Q96RT1
LAP2, Q96RT1, sequence (Q96RT1 other isoform, or with tags, fused parts or gaps): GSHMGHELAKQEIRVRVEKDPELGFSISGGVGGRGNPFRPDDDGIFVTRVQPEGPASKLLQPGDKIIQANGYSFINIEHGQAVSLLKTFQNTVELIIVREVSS

AAVENKVTDL [PLXNB1, O43157]
pKd (PDZRN3_1, Q9UPQ7): below the threshold
pKd (HTRA2, O43464): below the threshold
pKd (PDLIM1, O00151): 3.77
pKd (DLG3_1, Q92796): below the threshold
pKd (HTRA1, Q92743): 4.12
pKd (GORASP2, Q9H8Y8): 3.9
pKd (MPP6, Q9NZW5): below the threshold
pKd (LNX1_3, Q8TBB1): below the threshold
pKd (GRIP1_2, Q9Y3R0): below the threshold
pKd (ARHGEF12, Q9NZN5-2): 5.5
pKd (PCLO, Q9Y6V0): below the threshold
pKd (LIN7B, Q9HAP6): below the threshold
pKd (DVL3, Q92997): below the threshold
pKd (NHERF4_1, Q86UT5-2): 4
pKd (LIN7A, O14910): below the threshold
pKd (APBA2_1, Q99767): below the threshold
pKd (GRID2IP_1, A4D2P6): below the threshold
pKd (FRMPD2_2, Q68DX3): below the threshold
pKd (TJP1_3, Q07157): below the threshold
pKd (IL16_4, Q14005): below the threshold
pKd (FRMPD1, Q5SYB0): below the threshold
pKd (SCRIB_3, Q14160): 4.94
pKd (Inadl_8, Q8NI35): below the threshold
pKd (DLG3_2, Q92796): 3.72
pKd (SNTG1, Q9NSN8): 3.74
pKd (LAP2, Q96RT1): 3.54

KPGKGSETVV [FZD4, Q9ULV1]
pKd (PDZRN3_1, Q9UPQ7): 3.71
pKd (HTRA2, O43464): below the threshold
pKd (PDLIM1, O00151): below the threshold
pKd (DLG3_1, Q92796): 4.28
pKd (HTRA1, Q92743): 4.3
pKd (GORASP2, Q9H8Y8): 4.24
pKd (MPP6, Q9NZW5): below the threshold
pKd (LNX1_3, Q8TBB1): below the threshold
pKd (GRIP1_2, Q9Y3R0): below the threshold
pKd (ARHGEF12, Q9NZN5-2): below the threshold
pKd (PCLO, Q9Y6V0): below the threshold
pKd (LIN7B, Q9HAP6): below the threshold
pKd (DVL3, Q92997): below the threshold
pKd (NHERF4_1, Q86UT5-2): below the threshold
pKd (LIN7A, O14910): below the threshold
pKd (APBA2_1, Q99767): below the threshold
pKd (GRID2IP_1, A4D2P6): below the threshold
pKd (FRMPD2_2, Q68DX3): below the threshold
pKd (TJP1_3, Q07157): below the threshold
pKd (IL16_4, Q14005): below the threshold
pKd (FRMPD1, Q5SYB0): below the threshold
pKd (SCRIB_3, Q14160): 3.94
pKd (Inadl_8, Q8NI35): 3.49
pKd (DLG3_2, Q92796): 4.77
pKd (SNTG1, Q9NSN8): 3.91
pKd (LAP2, Q96RT1): below the threshold

TGLWKHETTV [ADGRA3, Q8IWK6]
pKd (PDZRN3_1, Q9UPQ7): 4.25
pKd (HTRA2, O43464): below the threshold
pKd (PDLIM1, O00151): below the threshold
pKd (DLG3_1, Q92796): 4.69
pKd (HTRA1, Q92743): 4.32
pKd (GORASP2, Q9H8Y8): 3.98
pKd (MPP6, Q9NZW5): below the threshold
pKd (LNX1_3, Q8TBB1): below the threshold
pKd (GRIP1_2, Q9Y3R0): below the threshold
pKd (ARHGEF12, Q9NZN5-2): 4.06
pKd (PCLO, Q9Y6V0): below the threshold
pKd (LIN7B, Q9HAP6): 4.04
pKd (DVL3, Q92997): below the threshold
pKd (NHERF4_1, Q86UT5-2): below the threshold
pKd (LIN7A, O14910): 4.19
pKd (APBA2_1, Q99767): below the threshold
pKd (GRID2IP_1, A4D2P6): below the threshold
pKd (FRMPD2_2, Q68DX3): 3.76
pKd (TJP1_3, Q07157): below the threshold
pKd (IL16_4, Q14005): below the threshold
pKd (FRMPD1, Q5SYB0): below the threshold
pKd (SCRIB_3, Q14160): 4.88
pKd (Inadl_8, Q8NI35): below the threshold
pKd (DLG3_2, Q92796): 5.25
pKd (SNTG1, Q9NSN8): 4.46
pKd (LAP2, Q96RT1): 4.32

PYPTADHMLA [JUP, P14923]
pKd (PDZRN3_1, Q9UPQ7): below the threshold
pKd (HTRA2, O43464): below the threshold
pKd (PDLIM1, O00151): below the threshold
pKd (DLG3_1, Q92796): below the threshold
pKd (HTRA1, Q92743): 4.32
pKd (GORASP2, Q9H8Y8): below the threshold
pKd (MPP6, Q9NZW5): below the threshold
pKd (LNX1_3, Q8TBB1): below the threshold
pKd (GRIP1_2, Q9Y3R0): below the threshold
pKd (ARHGEF12, Q9NZN5-2): below the threshold
pKd (PCLO, Q9Y6V0): below the threshold
pKd (LIN7B, Q9HAP6): 3.6
pKd (DVL3, Q92997): below the threshold
pKd (NHERF4_1, Q86UT5-2): below the threshold
pKd (LIN7A, O14910): below the threshold
pKd (APBA2_1, Q99767): below the threshold
pKd (GRID2IP_1, A4D2P6): below the threshold
pKd (FRMPD2_2, Q68DX3): below the threshold
pKd (TJP1_3, Q07157): below the threshold
pKd (IL16_4, Q14005): below the threshold
pKd (FRMPD1, Q5SYB0): below the threshold
pKd (SCRIB_3, Q14160): below the threshold
pKd (Inadl_8, Q8NI35): below the threshold
pKd (DLG3_2, Q92796): 4.05
pKd (SNTG1, Q9NSN8): below the threshold
pKd (LAP2, Q96RT1): below the threshold

QKAPTKEFYA [SDC2, P34741]
pKd (PDZRN3_1, Q9UPQ7): below the threshold
pKd (HTRA2, O43464): below the threshold
pKd (PDLIM1, O00151): below the threshold
pKd (DLG3_1, Q92796): below the threshold
pKd (HTRA1, Q92743): 4.47
pKd (GORASP2, Q9H8Y8): 3.93
pKd (MPP6, Q9NZW5): below the threshold
pKd (LNX1_3, Q8TBB1): below the threshold
pKd (GRIP1_2, Q9Y3R0): below the threshold
pKd (ARHGEF12, Q9NZN5-2): below the threshold
pKd (PCLO, Q9Y6V0): below the threshold
pKd (LIN7B, Q9HAP6): 3.53
pKd (DVL3, Q92997): below the threshold
pKd (NHERF4_1, Q86UT5-2): 3.57
pKd (LIN7A, O14910): below the threshold
pKd (APBA2_1, Q99767): below the threshold
pKd (GRID2IP_1, A4D2P6): below the threshold
pKd (FRMPD2_2, Q68DX3): 3.61
pKd (TJP1_3, Q07157): below the threshold
pKd (IL16_4, Q14005): below the threshold
pKd (FRMPD1, Q5SYB0): below the threshold
pKd (SCRIB_3, Q14160): below the threshold
pKd (Inadl_8, Q8NI35): below the threshold
pKd (DLG3_2, Q92796): 4.18
pKd (SNTG1, Q9NSN8): below the threshold
pKd (LAP2, Q96RT1): below the threshold
